According to US20190038704A1 (SANFORD BURNHAM PREBYS MEDICAL DISCOVERY INSTITUTE, published 2019):
Bridge positions count the residues as written; N and C are the ends. Square brackets hold non-standard residues; d marks the D form. Ends that are not written are not given here. βAla = NCCC(=O)O

B1: APY.am (peptide)
peptide: APYCVYRGSWSC-NH2
modifications: disulfide 4-12
notes: C-terminally amidated APY
B2: APY-Aib8.am (peptide)
peptide: APYCVYRXSWSC
modifications: aminoisobutyric acid (Aib) at position 8; C-terminal amide; disulfide bridge Cys4-Cys12
B3: APY-Lys7-βAla8.am (peptide)
peptide: APYCVYK[βAla]SWSC-NH2
modifications: disulfide 4-12 (inferred)
notes: also called APYCVYKβASWSC-am
B4: βAla1-PY.am (peptide)
peptide: XPYCVYRGSWSC
modifications: βAla at position 1; C-terminal amide; disulfide bridge Cys4-Cys12
B5: KY-βAla8.am (peptide)
peptide: KYCVYR[βAla]SWSC-NH2
modifications: disulfide 3-11 (inferred)
notes: numbers may be shifted
B6: ac.KY-βAla8.am (peptide)
peptide: Ac-KYCVYR[βAla]SWSC-NH2
modifications: disulfide 3-11 (inferred)
notes: numbers may be shifted
B7: APY-DAla8.am (peptide)
peptide: APYCVYRXSWSC
modifications: D-Ala at position 8; C-terminal amide; disulfide bridge Cys4-Cys12
B8: DAla1-PY.am (peptide)
peptide: XPYCVYRGSWSC
modifications: D-Ala at position 1; C-terminal amide; disulfide bridge Cys4-Cys12
B9: Y-βAla8.am (peptide)
peptide: YCVYR[βAla]SWSC-NH2
modifications: disulfide 2-10 (inferred)
notes: numbers may be shifted
B10: APY-βAla8.am (peptide)
peptide: APYCVYRXSWSC
modifications: βAla (3-aminopropanoic acid) at position 8; C-terminal amide; disulfide bridge Cys4-Cys12

target: T1, mouse EphA4 ectodomain fused to Fc (mouse, UniProt Q03137 20-547); assay: competition ELISA: ephrin-A5 AP binding to immobilized EphA4 Fc
T1 construct: extracellular domain; Defined as 'EphA4 Fc; also called EphA4 Fc; not shown: Fc portion
T1 sequence (Q03137 20-547): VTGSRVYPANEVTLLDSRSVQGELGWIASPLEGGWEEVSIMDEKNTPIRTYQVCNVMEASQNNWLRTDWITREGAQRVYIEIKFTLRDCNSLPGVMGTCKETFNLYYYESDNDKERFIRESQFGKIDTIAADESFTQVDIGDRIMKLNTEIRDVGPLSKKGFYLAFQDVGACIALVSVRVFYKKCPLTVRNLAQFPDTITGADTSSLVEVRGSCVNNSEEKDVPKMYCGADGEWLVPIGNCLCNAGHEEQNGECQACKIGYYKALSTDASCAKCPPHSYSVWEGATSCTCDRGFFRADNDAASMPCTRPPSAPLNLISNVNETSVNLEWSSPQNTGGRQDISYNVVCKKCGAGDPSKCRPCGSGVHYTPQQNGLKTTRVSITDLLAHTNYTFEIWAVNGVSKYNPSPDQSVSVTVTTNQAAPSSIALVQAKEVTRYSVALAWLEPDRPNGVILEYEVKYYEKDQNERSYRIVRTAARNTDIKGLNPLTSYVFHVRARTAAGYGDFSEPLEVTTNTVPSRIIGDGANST
Method: OD₄₀₅ was measured and the absorbance from wells coated with Fc was subtracted as background.

Row | IC50 [nM] | Binder
1 | 280 | B1
2 | 2600 | B2
3 | 68 | B3
4 | 680 | B4
5 | 260 | B5
6 | 1160 | B6
7 | 280 | B7
8 | 1100 | B8
9 | 1470 | B9

target: EphA4 in stably transfected human embryonal kidney (HEK293) cells; assay: cell-based or functional assay

Row | IC50 of inhibition of ephrin-A5-induced EphA4 tyrosine phosphorylation in HEK293 cells [nM] | Binder
10 | ~300 | B10
